In one series the test system is CD68+ macrophages. In words: CD68+ macrophage detection in quadriceps muscle. Format: in vivo, mouse. To be noted: 40 mg/kg s.c. at PD0, quadriceps muscle sections at PD7. The text has this: Peptides can typically pose as antigens, leading to immune reactions. Therefore, we examined the susceptibility of DG9-PMO to cause immune activation at an early neonatal stage, by looking at CD68^+ cells, indicative of circulating and tissue macrophages, in the quadriceps muscle sections at PD7 (Supplemental Figure 9, A and B). […] The apparent reduction in circulating macrophages following DG9-PMO treatment is likely due to amelioration of the atrophic musculature, which would compensate for any elevation seen from the treatment itself.
Cryosections (7 μm) of the quadriceps muscle were fixed with 4% PFA. The sections were incubated with rat anti-mouse CD68 antibody (MCA1957T, Bio-Rad). The number of CD68^+ cells was counted and averaged from at least 5 sections per sample at random intervals at 20× original magnification.

Series [1] is described as follows: Hybridization-based ELISA, PMO concentration in tissues of severe SMA mice. Format: in vivo. To be noted: mouse, sc, 40 mg/kg s.c. at PD0, PD7 mice. As to the method:
To determine the effects of DG9 peptide in increasing PMO uptake, we evaluated the biodistribution of unconjugated PMO and DG9-PMO in the peripheral and CNS tissues. We used a well-established hybridization-based ELISA designed specifically to detect the PMO to compare the concentration of DG9-PMO and unconjugated PMO in the tissues of treated PD7 mice ([51]).
ELISA was performed as described previously ([51], [69]). In brief, protein was extracted from frozen tissue sections (~20 μm) using RIPA buffer with cOmplete, Mini, EDTA-free protease inhibitor cocktail. The probes (Integrated DNA Technologies) were designed complementary to the PMO sequence with phosphorothioated backbones at the 5′ and 3′ ends. The 5′ and 3′ ends were labeled with digoxigenin and biotin, respectively. The tissue lysates (0.02 mg/mL protein concentration) were pretreated with 2.5 mg/mL trypsin containing 10 mM CaCl2 at 37°C overnight to digest the DG9 peptide. The probes were added to the samples and allowed to hybridize at 37°C for 30 minutes. Following the probe-PMO hybridization, the hybridized mixtures were added to Pierce NeutrAvidin Coated 96-Well Plates, Black (Thermo Fisher Scientific), to allow avidin-biotin interaction between the plate and the probes. The unhybridized probes were digested using micrococcal nuclease enzyme at 0.1 gel unit/μL (New England Biolabs). This was followed by the addition of an anti-digoxigenin antibody conjugated with ALP 1:5,000 (11093274910, Roche Applied Sciences). Attophos AP Fluorescent Substrate (Promega) was added to the PMO/DG9-PMO probes, and fluorescence was detected at 444 nm excitation and 555 nm emission by using a monochromator SpectraMax M3 plate reader (Molecular Devices).

The test system of series [2] is severe SMA mouse model. In words: Righting reflex test. Format: in vivo. To be noted: 40 mg/kg s.c. at PD0, compared with the other groups. The text has this: To evaluate the effects of systemic DG9-PMO treatment on muscle strength and the function of motor neurons, we used several functional tests and compared motor function in the treated and NT mice at various time points. We performed the hind limb suspension (HLS) assay and the righting reflex test during the early weeks of life. […] It should be noted that the results beyond PD12 are biased, as only the healthiest unconjugated PMO–, MOE-, and R6G-PMO–treated mice survived to these time points.
This spontaneous ability of the mice to right themselves up was tested from PD2 until the weaning stage PD20. The neonates were placed on their backs, and the time taken to reposition and place all 4 paws on the ground was noted. The recording time was a maximum of 60 seconds. Each neonate underwent 3 trials, with a resting period of at least 10 minutes between trials. The data are expressed as the mean time to complete the righting reflex test ± SEM.

Series [3] concerns severe SMA mouse model. Put plainly: Forelimb grip strength. To be noted: 40 mg/kg s.c. at PD0, normalized to body weight. Format: in vivo. The protocol:
This improvement was further bolstered by the forelimb grip strength assessment at PD30 in the DG9-PMO–treated mice (Figure 1E and Supplemental Figure 2A). […] We evaluated the relationship between the forelimb data and the sex at PD30. […] We also performed a rotarod test PD30 for the 40 mg/kg groups to assess their overall muscle coordination and balance ([41]). We observed that although the unconjugated PMO–treated mice had reduced forelimb grip strength, they were able to balance themselves on the rotating beam similar to DG9-PMO–treated mice owing to their smaller size and weight (Supplemental Figure 2C). Since we had only 2 MOE mice in this experiment, they were not included in the statistics. Taken together, based on conclusive findings from these functional tests, systemic injection of DG9-PMO improves motor function and muscle strength in both neonatal and adult SMA mice.
This assay was conducted as described in Treat NMD protocol SMA_M.2.1.002 ([73]). In short, the mouse is placed on the wire mesh of an automated grip strength meter (Columbus Instruments) such that only the front paws are allowed to grip the metal grid. The mouse is steadily pulled with the help of its tail, such that it lets go of the grid completely. PD30 and PD60 mice were used. Each mouse underwent 3 trials.

Read-outs that look alike come from different tables or passages of the source.

Take `CC(=O)N[C@@H](Cc1ccc(O)cc1)C(=O)N[C@@H](C)C(=O)N[C@H](CCCNC(=N)N)C(=O)N[C@H](C(=O)N[C@@H](CCCNC(=N)N)C(=O)N[C@@H](CCCNC(=N)N)C(=O)N[C@H](CCCNC(=N)N)C(=O)NCC(=O)N1CCC[C@H]1C(=O)N[C@@H](CCCNC(=N)N)C(=O)NCC(=O)N[C@@H](Cc1ccc(O)cc1)C(=O)N[C@@H](C)C(=O)N[C@H](CCCNC(=N)N)C(=O)N[C@H](C(=O)N[C@@H](CCCNC(=N)N)C(=O)N[C@@H](CCCNC(=N)N)C(=O)N[C@H](CCCNC(=N)N)C(=O)NCC(=O)N1CCC[C@H]1C(=O)N[C@@H](CCCNC(=N)N)C(=O)N[C@H](CCCNC(=N)N)C(=O)N1C[C@@H](COP(=O)(N(C)C)N2C[C@@H](COP(=O)(N(C)C)N3C[C@@H](COP(=O)(N(C)C)N4C[C@@H](COP(=O)(N(C)C)N5C[C@@H](COP(=O)(N(C)C)N6C[C@@H](COP(=O)(N(C)C)N7C[C@@H](COP(=O)(N(C)C)N8C[C@@H](COP(=O)(N(C)C)N9C[C@@H](COP(=O)(N(C)C)N%10C[C@@H](COP(=O)(N(C)C)N%11C[C@@H](COP(=O)(N(C)C)N%12C[C@@H](COP(=O)(N(C)C)N%13C[C@@H](COP(=O)(N(C)C)N%14C[C@@H](COP(=O)(N(C)C)N%15C[C@@H](COP(=O)(N(C)C)N%16C[C@@H](COP(=O)(N(C)C)N%17C[C@@H](COP(=O)(N(C)C)N%18C[C@@H](COP(=O)(N(C)C)N%19CCC(C(N)=O)CC%19)O[C@@H](n%19cc(C)c(=O)[nH]c%19=O)C%18)O[C@@H](n%18ccc(N)nc%18=O)C%17)O[C@@H](n%17cnc%18c(N)ncnc%18%17)C%16)O[C@@H](n%16ccc(N)nc%16=O)C%15)O[C@@H](n%15cc(C)c(=O)[nH]c%15=O)C%14)O[C@@H](n%14cc(C)c(=O)[nH]c%14=O)C%13)O[C@@H](n%13cc(C)c(=O)[nH]c%13=O)C%12)O[C@@H](n%12ccc(N)nc%12=O)C%11)O[C@@H](n%11cnc%12c(N)ncnc%12%11)C%10)O[C@@H](n%10cc(C)c(=O)[nH]c%10=O)C9)O[C@@H](n9cnc%10c(N)ncnc%109)C8)O[C@@H](n8cnc9c(N)ncnc98)C7)O[C@@H](n7cc(C)c(=O)[nH]c7=O)C6)O[C@@H](n6cnc7c(=O)[nH]c(N)nc76)C5)O[C@@H](n5ccc(N)nc5=O)C4)O[C@@H](n4cc(C)c(=O)[nH]c4=O)C3)O[C@@H](n3cnc4c(=O)[nH]c(N)nc43)C2)O[C@@H](n2cnc3c(=O)[nH]c(N)nc32)C1)C(C)C)C(C)C` (stereo partly drawn) [DG9-PMO]: the “number of CD68+ macrophages compared with the Hets” value in the series with CD68+ macrophages was “no significant difference”. Moreover, the level at time molar at 7 days after dosing (PD7) stood at 8.36 nM in series [1] (brain, n = 5, read-out: average AO detection, brain); 8.89 nM in series [1] (heart, n = 4, read-out: average AO detection, heart); 20000 nM in series [1] (kidney, n = 6, read-out: average AO detection, kidney); 200000 nM in series [1] (liver, n = 5, read-out: average AO detection, liver); 12.2 nM in series [1] (quadriceps muscle, n = 5, read-out: average AO detection, quadriceps muscle); 13.9 nM in series [1] (spinal cord, n = 4, read-out: average AO detection, spinal cord). Also, the “time to right (righting reflex)” value with severe SMA mouse model [2] was “significantly shorter time to right themselves on their paws between PD6 and PD10”. In addition, the “forelimb grip force at PD30” value in the series with severe SMA mouse model [3] was “forelimb grip force comparable to the Hets and significantly higher than the unconjugated PMO– and MOE-treated mice”.

Source of the values: paper PMC10077475, “DG9-conjugated morpholino rescues phenotype in SMA mice by reaching the CNS via a subcutaneous administration” (JCI Insight, 2023).
